According to patent publication US20090061451A1:

Target: mouse monoclonal PSA antibody
Assay: SPR, BIAcore 3000, antibody immobilised on CM5 chip

Substance	Kd [nM]
PSA-GOx complex (from UniProt P07288 25-261; P13006 23-605)	18.2
Prostate specific antigen (PSA) (from UniProt P07288 25-261) (enzyme)	0.701
